Assay results reported in patent US20250296971A1, “GASTRIC INHIBITORY PEPTIDE RECEPTOR LIGANDS” (priority 2021, published 2025).
Like-named read-outs stand apart in the source and are kept apart here. *1 amine or outer side, *2 acyl side, *3 side chain or, on linkers, in order; H or OH if unused. Where a SMILES comes first, the peptide text is derived from it. Bridges are numbered along the chain shown (N, C = ends). Where no end group is shown, it is not given here. [ ]: non-standard residue; d: D form. The star is where a group is joined. X5 = NC(=O)[C@H](CCCCNC(=O)CN1CCN(CC(=O)O)CCN(CC(=O)O)CCN(CC(=O)O)CC1)NC(=O)CCC(=O)NCCCOCCOCCOCCCN*; Ttds = 1,13-diamino-4,7,10-trioxatridecan-succinamic acid, NCCCOCCOCCOCCCNC(=O)CCC(=O)*; X3 = O=C(O)CN1CCN(CC(=O)O)CCN(CC(=O)NCCCOCCOCCOCCCN*)CCN(CC(=O)O)CC1; dE(AGLU) = D-glutamic acid bearing 1-amino-1-deoxy-D-glucitol; Pro(trans-4-NH2) = O=C([C@@H]1C[C@@H](N[*:3])CN1[*:1])[*:2]; DOTA = O=C(O)CN1CCN(CC(=O)O)CCN(CC(=O)*)CCN(CC(=O)O)CC1; 2Lut = 2,6-lutidylidene bridge between two thiols; Trp(5-Cl) = N[C@@H](Cc1c[nH]c2ccc(Cl)cc12)C(=O)O; Pyridine(2,6-diCH2) = c1cc(C[*:1])nc(C[*:2])c1; APAc = 4-amino-1-carboxymethylpiperidine; mXylylene = c1cc(C[*:1])cc(C[*:2])c1; Ethylenediamine = C(CN[*:2])N[*:1]; Glutaryl = O=C(CCCC(=O)[*:2])[*:1]; AGLU = 1-amino-1-deoxy-D-glucitol; Hyp = O=C(O)[C@@H]1C[C@@H](O)CN1; dGlu(AGLU) = not defined here; Suc = O=C(CCC(=O)[*:2])[*:1]; glu(AGLU) = not defined here; hSer = N[C@@H](CCO)C(=O)O; 3CbBn = 3-carboxybenzyl; Api = NC1(C(=O)O)CCNCC1; Aib = CC(C)(N)C(=O)O

T1: GIPR (CHO-K1-hGIPR cells) (Homo sapiens, UniProt P48546)
T1 construct: host or cells: CHO-K1
T1 sequence (P48546 22-466): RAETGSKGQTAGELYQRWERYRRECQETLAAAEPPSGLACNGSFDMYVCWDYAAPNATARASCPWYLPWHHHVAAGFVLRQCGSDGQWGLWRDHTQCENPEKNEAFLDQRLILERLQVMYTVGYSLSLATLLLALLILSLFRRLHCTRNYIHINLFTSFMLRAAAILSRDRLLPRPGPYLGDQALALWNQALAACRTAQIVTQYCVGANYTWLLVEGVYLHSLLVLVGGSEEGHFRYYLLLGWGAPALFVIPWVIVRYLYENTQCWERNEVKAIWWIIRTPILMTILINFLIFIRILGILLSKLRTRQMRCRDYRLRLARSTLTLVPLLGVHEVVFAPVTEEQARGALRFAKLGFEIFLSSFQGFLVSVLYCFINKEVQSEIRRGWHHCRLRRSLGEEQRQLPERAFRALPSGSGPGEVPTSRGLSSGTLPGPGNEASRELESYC

B1: DOTA-Ttds-Asp-Trp-5Clw-Pro-Glu-leu-[Cys(3CbBn)-Aib-Leu-Ile-en] (peptide)
peptide: {DOTA-Ttds}-DW[Trp(5-Cl)]PE[dL]C[Aib]LI[Ethylenediamine]
modifications: bridge (positions not given here) via 3CbBn; not fully specified (bridges); printed as DOTA-Ttds-Asp-Trp-5Clw-Pro-Glu-leu-[Cys(3CbBn)-Aib-Leu-Ile-en]
B2: 111In-labeled AGLU-Glutar-Asp-Trp-5Clw-Hyp-Glu-leu-[Cys(2Lut)-Apc(DOTA)-Leu-Ile-Cys]-APAc-glu(AGLU)-NH2 (111In-GIP-002) (peptide)
peptide: {AGLU-Glutaryl}-DW[Trp(5-Cl)][Hyp]E[dL]C[Api](DOTA)LIC-{APAc-dGlu(AGLU)-NH2}
modifications: linker 7-11 via Pyridine(2,6-diCH2); reading uncertain; also: DOTA complexed with 111In
B3: AGLU-Glutar-APAc-Ser-Trp-5Clw-Tap(AGLU-Glutar)-Hse-leu-[Cys(2Lut)-Apc(DOTA)-Leu-Ile-Cys]-APAc-glu(AGLU)-NH2 (peptide)
peptide: SWXXXXCXLIC
modifications: AGLU-Glutar-APAc; 5Clw; Tap(AGLU-Glutar); Hse; D-leu; Apc(DOTA); 2Lut bridge Cys-Cys; APAc; D-glu(AGLU); C-term NH2

Experiments:
[1] = Plasma stability assay, mouse plasma; assay type: in vitro ADME; details: 37° C., % intact compound remaining after 4 h or 24 h
Experimental: (§1) In order to determine the stability of selected compounds of the invention in human and mouse plasma, a plasma stability assay was carried out. Such plasma stability assay measures degradation of compounds of the present invention in blood plasma. This is an important characteristic of a compound as compounds, with the exception of pro-drugs, which rapidly degrade in plasma, generally show poor in vivo efficacy. […] The stability is sufficient for the diagnostic, therapeutic and theragnostic use of these compounds according to the present invention.
(§2) The plasma stability samples were prepared by spiking 50 μL plasma aliquots (all K2EDTA) with 1 μL of a 0.5 mM compound stock solution in DMS0. After vortexing the samples were incubated in a Thermomixer at 37° C. for 0, 4 and 24 hours. After incubation the samples were stored on ice until further treatment. All samples were prepared in duplicates.
(§3) A suitable internal standard was added to each sample (1 μL of a 0.5 mM stock solution in DMSO). Protein precipitation was performed by addition of 250 μL of acetonitrile containing 1% trifluoroacetic acid. After incubation at room temperature for 30 min the precipitate was separated by centrifugation and 150 μL of the supernatant was diluted with 150 μL of 1% aqueous formic acid.
(§4) Additionally, recovery was determined by spiking a pure plasma sample that only contained the internal standard after treatment with a certain amount of the compound.
(§5) Carry-over was evaluated by analysis of a blank sample (20% acetonitrile) after the highest calibration sample.

[2] = Plasma stability assay, human plasma; assay type: in vitro ADME; details: 37° C., % intact compound remaining after 4 h or 24 h
Experimental: as §1, §2, §3, §4, §5

[3] = biological target: T1, GIPR (CHO-K1-hGIPR cells); assay: FACS binding assay; details: competition with 20 nM GIP-057, 4° C., 1 hour
Outline: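 CHO-K1 cells expressing human GIPR, washed in PBS/1% FCS, then stained with 1 μg/mL APC-streptavidin for 30 min on ice.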

[4] = biological target: Recombinant soluble human NEP (Homo sapiens, UniProt P08473); assay: Proteolytic stability assay against NEP; details: NEP 100 ng/mL, compound 10 μM, 37° C., % intact compound remaining
Recombinant soluble human NEP, sequence (P08473 52-750 limits assumed): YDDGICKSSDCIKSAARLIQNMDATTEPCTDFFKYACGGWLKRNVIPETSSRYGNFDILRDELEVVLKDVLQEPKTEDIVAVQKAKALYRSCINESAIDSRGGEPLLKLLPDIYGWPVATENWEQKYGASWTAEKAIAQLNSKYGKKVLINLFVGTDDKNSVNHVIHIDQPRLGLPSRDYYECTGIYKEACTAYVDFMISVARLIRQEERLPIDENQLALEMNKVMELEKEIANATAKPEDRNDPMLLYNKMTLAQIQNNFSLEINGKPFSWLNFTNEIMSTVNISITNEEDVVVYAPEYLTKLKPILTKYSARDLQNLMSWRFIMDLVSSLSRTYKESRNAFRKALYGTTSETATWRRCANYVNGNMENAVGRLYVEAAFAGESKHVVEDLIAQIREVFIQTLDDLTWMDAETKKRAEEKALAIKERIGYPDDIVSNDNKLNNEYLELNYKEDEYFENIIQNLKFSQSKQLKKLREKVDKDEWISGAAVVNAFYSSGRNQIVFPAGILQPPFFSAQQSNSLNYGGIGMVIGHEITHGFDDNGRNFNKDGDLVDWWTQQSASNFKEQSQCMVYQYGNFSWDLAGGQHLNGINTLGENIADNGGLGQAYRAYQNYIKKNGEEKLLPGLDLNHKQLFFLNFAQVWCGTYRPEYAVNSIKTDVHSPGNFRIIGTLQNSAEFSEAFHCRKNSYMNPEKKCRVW

[5] = biological target: human gastric inhibitory polypeptide receptor (human GIPR) (human) (UniProt P48546); assay: radioligand binding assay, 111In-labeled compound on CHO cells expressing GIPR, 6 h 37 °C; pKD category A = pKD > 9.5
mouse GIPR (mouse) = mouse GIPR (mouse) (UniProt Q0P543); assay: radioligand binding assay, 111In-labeled compound on CHO-VGT cells expressing mouse GIPR, 6 h 37 °C; pKD category C = pKD < 9.0
mouse GIPR (mouse), sequence (Q0P543 19-460): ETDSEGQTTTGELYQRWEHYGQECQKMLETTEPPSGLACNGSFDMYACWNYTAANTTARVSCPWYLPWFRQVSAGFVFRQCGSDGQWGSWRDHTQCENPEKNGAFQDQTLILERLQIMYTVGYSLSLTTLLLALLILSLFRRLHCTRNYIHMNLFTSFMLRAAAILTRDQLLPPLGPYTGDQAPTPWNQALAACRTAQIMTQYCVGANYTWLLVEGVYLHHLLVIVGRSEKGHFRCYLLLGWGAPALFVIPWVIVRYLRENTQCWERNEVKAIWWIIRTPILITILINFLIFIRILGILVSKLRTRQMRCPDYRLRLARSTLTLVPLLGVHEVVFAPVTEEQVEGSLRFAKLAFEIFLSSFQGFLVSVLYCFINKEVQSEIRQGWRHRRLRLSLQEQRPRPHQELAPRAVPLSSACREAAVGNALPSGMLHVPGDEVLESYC

rat GIPR (rat) = rat GIPR (rat) (UniProt P43219); assay: radioligand binding assay, 111In-labeled compound on CHO-VGT cells expressing rat GIPR, 6 h 37 °C; pKD category B = pKD between 9.0 and 9.5
rat GIPR (rat), sequence (P43219 19-455): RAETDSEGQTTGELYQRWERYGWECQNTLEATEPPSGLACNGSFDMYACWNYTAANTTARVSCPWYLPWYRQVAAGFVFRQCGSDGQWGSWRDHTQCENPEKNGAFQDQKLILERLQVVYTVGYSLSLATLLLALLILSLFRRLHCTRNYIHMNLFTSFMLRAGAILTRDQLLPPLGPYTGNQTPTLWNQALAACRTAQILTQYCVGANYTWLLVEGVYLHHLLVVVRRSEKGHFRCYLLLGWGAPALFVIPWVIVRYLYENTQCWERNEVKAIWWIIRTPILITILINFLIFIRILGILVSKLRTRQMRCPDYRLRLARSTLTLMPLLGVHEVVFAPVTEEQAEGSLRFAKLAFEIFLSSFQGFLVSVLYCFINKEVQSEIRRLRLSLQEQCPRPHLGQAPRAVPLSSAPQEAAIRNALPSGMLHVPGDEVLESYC

dog GIPR (dog) = assay: radioligand binding assay, 111In-labeled compound on CHO-VGT cells expressing dog GIPR, 6 h 37 °C; pKD category A = pKD > 9.5
dog GIPR (dog), sequence (chain, as listed by the source limits assumed, form in doubt): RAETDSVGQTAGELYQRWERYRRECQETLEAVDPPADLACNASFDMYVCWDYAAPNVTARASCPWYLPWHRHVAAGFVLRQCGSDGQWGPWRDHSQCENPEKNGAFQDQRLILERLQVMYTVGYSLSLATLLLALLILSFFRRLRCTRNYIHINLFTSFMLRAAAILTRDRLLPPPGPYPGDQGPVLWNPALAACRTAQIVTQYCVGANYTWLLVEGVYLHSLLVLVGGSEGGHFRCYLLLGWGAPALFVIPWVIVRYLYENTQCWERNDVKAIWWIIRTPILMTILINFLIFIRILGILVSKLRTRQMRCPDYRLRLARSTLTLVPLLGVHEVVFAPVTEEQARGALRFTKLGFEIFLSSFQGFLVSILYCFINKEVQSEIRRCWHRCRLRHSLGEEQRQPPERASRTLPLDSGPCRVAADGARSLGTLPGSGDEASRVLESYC

[6] = biological target: human Gastric Inhibitory Peptide Receptor (GIPR) (human) (UniProt P48546); assay: FACS competition vs biotinylated GIP-057 on CHO-K1-hGIPR cells; category B: pIC50 7.1-8.0
[7] = biological target: biotinylated extracellular domain of the human GIP receptor (bioGIPR) (human) (UniProt P48546); assay: SPR single cycle kinetics, bioGIPR captured on chip; category B: pKD 8.1-9.0
[8] = biological target: biotinylated extracellular domain of the human GIP receptor (bioGIPR) (human) (UniProt P48546); assay: SPR single cycle kinetics, bioGIPR captured on chip; category C: t1/2 5-2.1 min
[9] = biological target: human Gastric Inhibitory Peptide Receptor (human) (UniProt P48546); assay: FACS competition with GIP-057 on CHO-K1-hGIPR cells; pIC50 category B: 7.1-8.0
[10] = biological target: biotinylated extracellular domain of the human GIP receptor (bioGIPR) (human) (UniProt P48546); assay: SPR single cycle kinetics, bioGIPR captured on chip; category D: t1/2 <2.0 min
[11] = read-out: pIC50 Category (converted)

Molecule	Mouse plasma stability category [1]	IC50 [3, 11] [nM]	NEP stability category [4]	pKD [7] [pkd]	pIC50 [9] [pic50]	t1/2 [10] [min]	further results
CC[C@H](C)[C@@H]1NC(=O)[C@H](CC(C)C)NC(=O)[C@H](C)NC(=O)[C@@H](NC(=O)[C@H](CC(C)C)NC(=O)[C@H](CCC(=O)O)NC(=O)[C@@H]2CCCN2C(=O)[C@H](Cc2c[nH]c3ccccc23)NC(=O)[C@H](Cc2c[nH]c3ccccc23)NC(=O)[C@H](CC(=O)O)NC(C)=O)CSCc2cccc(c2)CSC[C@@H](C(N)=O)NC1=O [GIP-244, Ac-Asp-Trp-Trp-Pro-Glu-Leu-[Cys(3MeBn)-Ala-Leu-Ile-Cys]-NH2] (Ac-DWWPELCALIC-NH2; linker 7-11 via mXylylene)	B (>80% intact after 4 hours)	10 to 79.4	A (>80% intact after 24 hours)	–	–	–	Human plasma stability category [2]: B (>80% intact after 4 hours)
CC[C@H](C)[C@@H]1NC(=O)[C@H](CC(C)C)NC(=O)C2(CCN(C(=O)CN3CCN(CC(=O)O)CCN(CC(=O)O)CCN(CC(=O)O)CC3)CC2)NC(=O)[C@@H](NC(=O)[C@@H](CC(C)C)NC(=O)[C@H](CCC(=O)O)NC(=O)[C@@H]2C[C@@H](O)CN2C(=O)[C@H](Cc2c[nH]c3ccc(Cl)cc23)NC(=O)[C@H](Cc2c[nH]c3ccccc23)NC(=O)[C@H](CC(=O)O)NC(=O)CN2CCC(NC(=O)CCOCCOCCOCCOCCOCCOCCOCCOCCOCCOCCOCCOCCOCCOCCOCCOCCOCCOCCOCCOCCOCCOCCOCCOCCOCCOCCOCCOCCOCCOCCOCCOCCOCCOCCOCCOCCOC)CC2)CSCc2cccc(n2)CSC[C@@H](C(=O)N[C@H](CCC(=O)NC[C@H](O)[C@@H](O)[C@H](O)[C@H](O)CO)C(N)=O)NC1=O [GIP-040, Me036PEG-APAc-Asp-Trp-5Clw-Hyp-Glu-leu-[Cys(2Lut)-Apc(DOTA)-Leu-Ile-Cys]-glu(AGLU)-NH2]	–	–	A (>80% intact after 24 hours)	–	–	–	IC50 ([3]; pIC50 Category): 10 to 79.4 nM
CC[C@H](C)[C@@H]1NC(=O)[C@H](CC(C)C)NC(=O)[C@H](C)NC(=O)[C@@H](NC(=O)[C@H](CC(C)C)NC(=O)[C@H](CCC(=O)O)NC(=O)[C@@H]2CCCN2C(=O)[C@H](Cc2c[nH]c3ccccc23)NC(=O)[C@H](Cc2c[nH]c3ccccc23)NC(=O)[C@H](CC(=O)O)NC(=O)[C@H](Cc2ccc(O)cc2)NC(=O)CCC(=O)NCCCOCCOCCOCCCNC(=O)CN2CCN(CC(=O)O)CCN(CC(=O)O)CCN(CC(=O)O)CC2)CSCc2cccc(c2)CSC[C@@H](C(N)=O)NC1=O [GIP-126, DOTA-Ttds-Tyr-Asp-Trp-Trp-Pro-Glu-Leu-[Cys(3MeBn)-Ala-Leu-Ile-Cys]-NH2] ({X3-Suc}-YDWWPELCALIC-NH2; linker 8-12 via mXylylene)	B (>80% intact after 4 hours)	10 to 79.4	A (>80% intact after 24 hours)	–	–	–	–
CC[C@H](C)[C@@H]1NC(=O)[C@H](CC(C)C)NC(=O)[C@H](C)NC(=O)[C@@H](NC(=O)[C@H](CC(C)C)NC(=O)[C@H](CCC(=O)O)NC(=O)[C@@H]2CCCN2C(=O)[C@H](Cc2c[nH]c3ccccc23)NC(=O)[C@H](Cc2c[nH]c3ccccc23)NC(=O)[C@H](CC(=O)O)NC(=O)[C@H](Cc2ccc(O)cc2)NC(C)=O)CSCc2cccc(c2)CSC[C@@H](C(=O)NCCCOCCOCCOCCCNC(=O)CCC(=O)N[C@@H](CCCCNC(=O)CN2CCN(CC(=O)O)CCN(CC(=O)O)CCN(CC(=O)O)CC2)C(N)=O)NC1=O [GIP-127, Ac-Tyr-Asp-Trp-Trp-Pro-Glu-Leu-[Cys(3MeBn)-Ala-Leu-Ile-Cys]-Ttds-Lys(DOTA)-NH2] (Ac-YDWWPELCALIC-X5; linker 8-12 via mXylylene)	B (>80% intact after 4 hours)	10 to 79.4	A (>80% intact after 24 hours)	–	–	–	–
{AGLU-Glutaryl}-DW[Trp(5-Cl)][Pro(trans-4-NH2)]E[dL]C[Api](DOTA)LIC-{APAc-dE(AGLU)-NH2} (linker 7-11 via Pyridine(2,6-diCH2); also: DOTA complexed with 111In)	–	–	–	–	–	–	pKD [5]: > 9.5 pkd; pKD (mouse GIPR (mouse)): < 9 pkd; pKD (rat GIPR (rat)): 9 to 9.5 pkd; pKD (dog GIPR (dog)): > 9.5 pkd
B1	–	–	–	8.1 to 9	–	–	pIC50 [6]: 7.1 to 8 pic50; t1/2 [8]: 2.1 to 5 min
B2	–	–	–	–	–	–	pKD [5]: > 9.5 pkd
B3	–	–	–	8.1 to 9	7.1 to 8	< 2	–
{AGLU-Glutaryl-APAc}-SW[Trp(5-Cl)][Pro(trans-4-NH2)][hSer][dL]C[Api](DOTA)LIC-{APAc-glu(AGLU)-NH2} (linker 7-11 via 2Lut; reading uncertain) [AGLU-Glutar-APAc-Ser-Trp-5Clw-Tap-Hse-leu-[Cys(2Lut)-Apc(DOTA)-Leu-Ile-Cys]-APAc-glu(AGLU)-NH2]	–	–	–	8.1 to 9	7.1 to 8	< 2	–
{AGLU-Glutaryl-APAc}-[hSer]W[Trp(5-Cl)][Hyp]E[dL]C[Api](DOTA)LIC-{APAc-dE(AGLU)-NH2} (linker 7-11 via Pyridine(2,6-diCH2)) [AGLU-Glutar-APAc-Hse-Trp-5Clw-Hyp-Glu-leu-[Cys(2Lut)-Apc(DOTA)-Leu-Ile-Cys]-APAc-glu(AGLU)-NH2]	–	–	–	8.1 to 9	7.1 to 8	< 2	–
